# Source: article PMC12369479
# Several values for one entry are separate records, joined by “and”; a condition that tells them apart may be missing. Equal values may be shown once.
# What was measured:
# [1] = substrate: Nc1ncnc2c1ncn2[C@@H]1O[C@H](CO)[C@@H](O)[C@H]1O; test: purified protein, by the assay type; conditions: pH 7.5, 30 °C
# Experimental: The ADK activity was measured spectrophotometrically on an Agilent 8453 UV-Vis spectrophotometer (www.agilent.com) at 30 °C using a coupled reaction with pyruvate kinase (PK) and lactate dehydrogenase (LDH) (www.sigmaaldrich.com) ([Blondin et al., 1994]). In this assay, PK converts ADP produced by ADK and phosphoenolpyruvate (PEP) to pyruvate. Subsequently, LDH then converts pyruvate to lactate using the coenzyme NADH, with the conversion monitored at 340 nm. The reaction was conducted in 50 mM Tris–HCl buffer at pH 7.5, containing 50 mM KCl, 6 mM MgCl2, 300 µM PEP, 200 µM NADH, 10 mM ATP, 2 U of PK, and 2.5 U of LDH, using various nucleoside substrates. Kinetic constants were determined using GraphPad Prism 8.0 software (www.graphpad.com). […] The activities of all five ADKs were also measured by HPLC ([Moffatt et al., 1991]). The reaction mixture comprised 50 mM Tris–HCl pH 7.5, 5 mM MgCl2, 0.5 mM DTT, 30 mM NaF, 5 mM ATP, 40 µM substrate, and 2–150 ng of purified ADK, depending on the isoform. The reaction was incubated at 30 °C for up to 1 h. […] Similarly, the conversion of cytokinin ribosides to monophosphates was followed on a LiChrosphere 60 RP-Select B (5 µm) LiChroCART column 125-4 column equilibrated with 10 mM triethylamine at pH 5.4 plus 10% methanol, and stepwise eluted with 100% methanol.
# [2] = substrate: Nc1ncnc2c1ncn2[C@@H]1O[C@H](CO)[C@@H](O)[C@H]1O; test: ADK activity, coupled reaction with PK and LDH; type: biochemical, Zea mays; conditions: other: ZmADK2, 10 mM ATP, pH 7.5, 30 °C
# Experimental: (§1) Substrate analogs were purchased from Sigma-Aldrich (www.sigmaaldrich.com). The ADK activity was measured spectrophotometrically on an Agilent 8453 UV-Vis spectrophotometer (www.agilent.com) at 30 °C using a coupled reaction with pyruvate kinase (PK) and lactate dehydrogenase (LDH) (www.sigmaaldrich.com) ([Blondin et al., 1994]). In this assay, PK converts ADP produced by ADK and phosphoenolpyruvate (PEP) to pyruvate. Subsequently, LDH then converts pyruvate to lactate using the coenzyme NADH, with the conversion monitored at 340 nm. The reaction was conducted in 50 mM Tris–HCl buffer at pH 7.5, containing 50 mM KCl, 6 mM MgCl2, 300 µM PEP, 200 µM NADH, 10 mM ATP, 2 U of PK, and 2.5 U of LDH, using various nucleoside substrates. Kinetic constants were determined using GraphPad Prism 8.0 software (www.graphpad.com). Each measurement was performed six times using repetitive purified enzymes. The activities of all five ADKs were also measured by HPLC ([Moffatt et al., 1991]). The reaction mixture comprised 50 mM Tris–HCl pH 7.5, 5 mM MgCl2, 0.5 mM DTT, 30 mM NaF, 5 mM ATP, 40 µM substrate, and 2–150 ng of purified ADK, depending on the isoform. The reaction was incubated at 30 °C for up to 1 h. […] Similarly, the conversion of cytokinin ribosides to monophosphates was followed on a LiChrosphere 60 RP-Select B (5 µm) LiChroCART column 125-4 column equilibrated with 10 mM triethylamine at pH 5.4 plus 10% methanol, and stepwise eluted with 100% methanol.
# [3] = substrate: CC(C)=CCNc1ncnc2c1ncn2C1OC(CO)C(O)C1O; test: ADK activity, coupled reaction with PK and LDH; type: biochemical, Zea mays; conditions: other: ZmADK2, 10 mM ATP, pH 7.5, 30 °C
# Experimental: as §1
# [4] = substrate: O=c1[nH]c(=O)c2ncn([C@@H]3O[C@H](CO)[C@@H](O)[C@H]3O)c2[nH]1; test: ADK activity, coupled reaction with PK and LDH; type: biochemical, Zea mays; conditions: other: ZmADK2, 10 mM ATP, pH 7.5, 30 °C
# Experimental: as §1
# [5] = substrate: Nc1ncnc2c1ncn2[C@@H]1O[C@H](CO)C[C@H]1O; test: ADK activity, coupled reaction with PK and LDH; type: biochemical, Zea mays; conditions: other: ZmADK2, 10 mM ATP, pH 7.5, 30 °C
# Experimental: as §1
# [6] = substrate: OC[C@H]1O[C@@H](n2cnc3c(O)ncnc32)[C@H](O)[C@@H]1O; test: ADK activity, coupled reaction with PK and LDH; type: biochemical, Zea mays; conditions: other: ZmADK2, 10 mM ATP, pH 7.5, 30 °C
# Experimental: as §1
# [7] = substrate: Nc1nc2c(ncn2[C@@H]2O[C@H](CO)[C@@H](O)[C@H]2O)c(=O)[nH]1; test: ADK activity, coupled reaction with PK and LDH; type: biochemical, Zea mays; conditions: other: ZmADK2, 10 mM ATP, pH 7.5, 30 °C
# Experimental: as §1
# [8] = substrate: Nc1ccn([C@@H]2O[C@H](CO)[C@@H](O)[C@H]2O)c(=O)n1; test: ADK activity, coupled reaction with PK and LDH; type: biochemical, Zea mays; conditions: other: ZmADK2, 10 mM ATP, pH 7.5, 30 °C
# Experimental: as §1
# [9] = substrate: Nc1ncnc2c1ncn2[C@@H]1O[C@H](CO)[C@@H](O)[C@@H]1O; test: ADK activity, coupled reaction with PK and LDH; type: biochemical, Zea mays; conditions: other: ZmADK2, 10 mM ATP, pH 7.5, 30 °C
# Experimental: as §1
# [10] = substrate: Nc1ncnc2c1ncn2[C@@H]1O[C@H](CO)[C@@H](O)[C@H]1O; test: ADK activity, coupled reaction with PK and LDH; type: biochemical, Physcomitrella patens; conditions: other: PpADK1, 10 mM ATP, pH 7.5, 30 °C
# Experimental: (§2) Substrate analogs were purchased from Sigma-Aldrich (www.sigmaaldrich.com). The ADK activity was measured spectrophotometrically on an Agilent 8453 UV-Vis spectrophotometer (www.agilent.com) at 30 °C using a coupled reaction with pyruvate kinase (PK) and lactate dehydrogenase (LDH) (www.sigmaaldrich.com) ([Blondin et al., 1994]). In this assay, PK converts ADP produced by ADK and phosphoenolpyruvate (PEP) to pyruvate. Subsequently, LDH then converts pyruvate to lactate using the coenzyme NADH, with the conversion monitored at 340 nm. The reaction was conducted in 50 mM Tris–HCl buffer at pH 7.5, containing 50 mM KCl, 6 mM MgCl2, 300 µM PEP, 200 µM NADH, 10 mM ATP, 2 U of PK, and 2.5 U of LDH, using various nucleoside substrates. Kinetic constants were determined using GraphPad Prism 8.0 software (www.graphpad.com). Each measurement was performed six times using repetitive purified enzymes. The activities of all five ADKs were also measured by HPLC ([Moffatt et al., 1991]). The reaction mixture comprised 50 mM Tris–HCl pH 7.5, 5 mM MgCl2, 0.5 mM DTT, 30 mM NaF, 5 mM ATP, 40 µM substrate, and 2–150 ng of purified ADK, depending on the isoform. The reaction was incubated at 30 °C for up to 1 h. […]
# [11] = substrate: CC(C)=CCNc1ncnc2c1ncn2C1OC(CO)C(O)C1O; test: ADK activity, coupled reaction with PK and LDH; type: biochemical, Physcomitrella patens; conditions: other: PpADK1, 10 mM ATP, pH 7.5, 30 °C
# Experimental: as §2
protein,measurement,setting,value
ZmADK1 (Zea mays) (protein) MAASEGVLLGMGNPLLDISAVVDDAFLAKYDIKLNNAILAEEKHSPMYDELASNSNVEYIAGGATQNSIRVAQWMLQTPGATSYMGCIGKDKFGEEMKKNAQAAGVTAHYYEDETAPTGTCAVCVVGGERSLIANLSAANCYKSEHLKRPENWALVEKAKYIYIAGFFLTVSPDSIQLVAEHAAANNKVFLMNLSAPFICEFFYDAQEKVLPYADFIFGNETEAKIFAKVRGWETENVEEIALKISQLPLASGKQKRIAVITQGADPVVVAEDGKVKTFPVILLPKEKLVDTNGAGDAFVGGFLSRLVQGKSIEDCVTAGCYAANVVIQRPGCTYPEKPDFN,Km,"[1]; other: ZmADK1, 10 mM ATP",0.62 ± 0.11 µM
ZmADK2 (Zea mays; T4S) (protein) MAASEGVLLGMGNPLLDISAVVDDAFLTKYDIKLNNAILAEEKHLPMYDELASKSNVEYIAGGATQNSIRVAQWMLQTPGATSYMGCIGKDKFGEEMKKNAQAAGVTAHYYEDETAPTGTCAVCVVGGERSLIANLSAANCYKSEHLKRPENWALVEKAKYIYIAGFFLTVSPDSIQLVAEHAAANNKVFLMNLSAPFICEFFRDAQEKVLPYADYIFGNETEAKIFAKVRGWETENIEEIALKISQLPLASGKQKRIAVITQGADPVVVAEDGKVKTFPVILLPKEKLVDTNGAGDAFVGGFLSQLVLGKGIEDCVRAGCYAANVIIQRPGCTYPEKPDFN,Km,[2],0.65 ± 0.09 µM
same,Km,[3],9.8 ± 1.5 µM
same,Km,[4],178 ± 10 µM
same,kcat,[4],0.55 ± 0.01 s⁻¹
same,Km,[5],170 µM and 173 ± 11 µM
same,kcat,[5],0.43 ± 0.01 s⁻¹
same,Km,[6],420 ± 44 µM
same,kcat,[6],0.57 ± 0.02 s⁻¹
same,Km,[7],218 ± 23 µM
same,kcat,[7],0.48 ± 0.02 s⁻¹
same,Km,[8],313 ± 28 µM
same,kcat,[8],0.23 ± 0.01 s⁻¹
same,Km,[9],524 ± 51 µM
same,kcat,[9],0.24 ± 0.02 s⁻¹
"PpADK1 (Physcomitrium patens) (protein, made in house; host or cells: E. coli T7 Express Iq) MASEGVLLGMGNPLLDISCVVDDAFLEKYGLTLNNAILAEDKHLPMYKELAANPDVEYIAGGATQNTIRIAQWMLGESNATSYFGCVGKDEYGDRMFKLASEGGVNIRYDVDEDLPTGTCGVLVVKGERSLVANLSAANKYKIDHLKKPENWAFVEKAKYIYSAGFFLTVSPESMMTVAKHAAETGKYYMINLAAPFICQFFKDPLMELFPYVDFIFGNESEARAFAQVQGWETEDTKVIAVKLAALPKAGGTHKRVAVITQGTDPTIVAEDGKVTEFPVTPIPKEKLVDTNAAGDSFVGGFLSQLVLGKDIAQCVRAGNYAASVIIQRSGCTFPSKPSFESQ",Km,[10],0.71 ± 0.05 µM
same,Km,[11],12.1 ± 2.5 µM
PpADK2 (Physcomitrium patens) (protein) MASEGVLLGMGNPLLDISCVVDEAFLEKYGLTLNNAILAEDKHLPIYKELAGRPDVEYIAGGATQNTIRIAQWMLREPKATSYIGCVGKDEFGDRMYKLASEGGVNIQYDVDEELPTGTCGVLVVKGERSLVANLSAAKKYKIDHLKKPENWVCVERAKFIYSSGFFLAVSPESMMTVARHAAETGKYYMINLAAPFICQFKDLMELFPYVDFIFGNESEARTFAQVQGWETEDTKIIAVKLAALPKASGTHKRVAVITQGTDPTIVSVDGQVTEIPITVIPKNKLVDTNAAGDAFVGGFLSQLVLGKDIVECVRAGNYASSIIIQRSGCTFPLKPCFQSE,Km,"[1]; other: PpADK2, 10 mM ATP",0.54 ± 0.05 µM
